This note sets out measurements from US20120237496.

Numbering of substitutions follows the chain as printed.

One series addresses T1, Peptide-13 (not fully specified).
T1 chain: CRPPGFSPFRK

The target of a further series is T2, Peptide-3.
T2 chain: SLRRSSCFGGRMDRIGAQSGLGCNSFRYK

The next series has as its target T3, Peptide-5 (not fully specified).
T3 chain: CDRVYIHPFHLK

Another series addresses T4, Peptide-6a.
T4 chain: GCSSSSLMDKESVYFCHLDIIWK

For another series, the target named is T5, Peptide-6b.
T5 chain: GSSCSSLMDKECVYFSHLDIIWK

A further series deals with T6, Peptide-8 (not fully specified).
T6 chain: CQLYENKPRRPYILK

B1: C11 (protein)
chain: YPYDVPDYAYPYDVPDYAYPYDVPDYAGSYDDGICKSSDCIKSAARLIQNMDATTEPCTDFFKYACGGWLKRNVIPETSSRYGNFDILRDELEVVLKDVLQEPKTEDIVAVQKAKALYRSCINESAIDSRGGEPLLKLLPDIYGWPVATENWEQKYGASWTAEKAIAQLNSKYGKKVLINLFVGTDDKNSVNHVIHIDQPRLGLPRRDYYECTGIYKEACTAYVDLMISVARLIRQEERLPIDENQLALEMNKVMELEKEIANATAKPEDRNDPMLLYNKMTLAQIQNNFSLEINGKPFSWLNFTNEIMSTVNISITNEEDVVVYAPEYLTKLKPILTKYSARDLQNLMSWRFIMDLVSSLSRTYKESRNAFRKALYVTTSETATWRRCANYVNGNMMNAVGRLYVEAAFAGESKHVVEDLIAQIREVFIQTLDDLTWMDAETKKRAEEKALAIKERIGYPDDIVSNDNKLNNEYLELNYKEDEYFENIIQNLKFSQSKQLKKLREKVDKDEWISGAAVVNAFYSSGRNQIVFPAGILQPPFFSAQQSNSLNYGGIGMVIGHEITHGFMDNGRNPNKDWDLVDWWTQQSASNFKEQSQCMVYQYGNFSWDLAGGQHLNGINTLGENIADNGGLGQAYRAYQNYIKKNGEEKLLPGLDLNHKQLFFLNFAQVWCGTYRPEYAVNSIKTDVHSPKNFRIIGTLQNSAEFSEAFHCRKNSYMNPEKKCRVW
On to B1, for which the kapp ratio vs G399V/G714K (B1) with Peptide-1 was found to be 2.19 fold; with Peptide-13 it was 0.61 fold; with Peptide-2, 2.14 fold; with Peptide-3, 0.24 fold; with Peptide-4, 0.49 fold; with Peptide-5, 0.19 fold. In addition, the kapp ratio vs G399V/G714K (B1) with Peptide-6a came out at 0.28 fold; with Peptide-6b, 0.11 fold; with Peptide-7, 0.66 fold; with Peptide-8 it was 0.35 fold.

B2: C12 (protein)
chain: B1 chain with M398E, P575F, W579V
Consider B2, for which the kapp ratio vs G399V/G714K (B1) was 2.11 fold with Peptide-1; 0.83 fold with Peptide-13; 2.04 fold in the series with Peptide-2; 0.24 fold with Peptide-3; 0.79 fold in the series with Peptide-4; 0.26 fold with Peptide-5. Moreover, the kapp ratio vs G399V/G714K (B1) with Peptide-6a worked out at 0.32 fold; in the series with Peptide-6b, 0.18 fold; with Peptide-7, 0.84 fold; with Peptide-8, 0.43 fold.

B3: C13 (protein)
chain: B1 chain with R206S, R207G, P575F, W579V
Consider B3, for which the kapp ratio vs G399V/G714K (B1) was found to be 1.78 fold with Peptide-1; 0.39 fold in the series with Peptide-13; 1.56 fold with Peptide-2; 0.24 fold with Peptide-3; 0.91 fold with Peptide-4; 0.18 fold with Peptide-5. In addition, the kapp ratio vs G399V/G714K (B1) was 0.3 fold with Peptide-6a, 0.18 fold with Peptide-6b, 0.36 fold with Peptide-7 and 0.35 fold with Peptide-8.

B4: C19 (protein)
chain: B1 chain with R206S, R207G, L226F, W579L
On to B4, for which the kapp ratio vs G399V/G714K (B1) turned out to be 2.33 fold with Peptide-1; 0.33 fold in the series with Peptide-13; 2.34 fold with Peptide-2; 0.24 fold with Peptide-3; 0.67 fold in the series with Peptide-4; 0.15 fold in the series with Peptide-5. In addition, the kapp ratio vs G399V/G714K (B1) was 0.29 fold with Peptide-6a, 0.19 fold with Peptide-6b, 0.34 fold in the series with Peptide-7 and 0.29 fold with Peptide-8.

B5: C18 (protein)
chain: B1 chain with R206S, R207G, L226F, G572V, P575F
Turning to B5, the kapp ratio vs G399V/G714K (B1) was 2.56 fold with Peptide-1; 0.5 fold with Peptide-13; 2.29 fold in the series with Peptide-2; 0.24 fold with Peptide-3; 0.59 fold with Peptide-4; 0.16 fold with Peptide-5. The kapp ratio vs G399V/G714K (B1) with Peptide-6a amounted to 0.36 fold; with Peptide-6b it was 0.26 fold; with Peptide-7, 0.67 fold; with Peptide-8, 0.73 fold.

B6: C16 (protein)
chain: B1 chain with R206S, R207G, L226F, G572V
On to B6, for which the kapp ratio vs G399V/G714K (B1) with Peptide-1 stood at 2.24 fold; with Peptide-13, 0.44 fold; with Peptide-2 it was 2.19 fold; with Peptide-3, 0.24 fold; with Peptide-4, 0.7 fold; in the series with Peptide-5, 0.21 fold. Also, the kapp ratio vs G399V/G714K (B1) with Peptide-6a turned out to be 0.35 fold; in the series with Peptide-6b, 0.23 fold; with Peptide-7, 0.7 fold; in the series with Peptide-8, 0.4 fold.

B7: C17 (protein)
chain: B1 chain with R206S, R207G, L226F, G572V, W579G
Regarding B7, the kapp ratio vs G399V/G714K (B1) was found to be 3.28 fold with Peptide-1; 0.49 fold with Peptide-13; 3.13 fold in the series with Peptide-2; 0.24 fold with Peptide-3; 0.7 fold with Peptide-4; 0.27 fold with Peptide-5. Besides, the kapp ratio vs G399V/G714K (B1) in the series with Peptide-6a came to 0.47 fold; in the series with Peptide-6b it was 0.33 fold; with Peptide-7 it was 0.57 fold; with Peptide-8, 0.33 fold.

B8: C15 (protein)
chain: B1 chain with R206S, R207G, L226F, G572V, P575F, W579D
For the protein B8, the kapp ratio vs G399V/G714K (B1) with Peptide-1 is 2.52 fold; with Peptide-13, 0.44 fold; in the series with Peptide-2, 2.72 fold; with Peptide-3 it was 0.24 fold; in the series with Peptide-4 it was 0.7 fold; with Peptide-5, 0.25 fold. Besides, the kapp ratio vs G399V/G714K (B1) came out at 0.46 fold with Peptide-6a, 0.24 fold in the series with Peptide-6b, 0.75 fold with Peptide-7 and 0.52 fold with Peptide-8.

B9: C14 (protein)
chain: B1 chain with R206S, R207G, P575F, W579D
For B9, the kapp ratio vs G399V/G714K (B1) amounted to 1.98 fold with Peptide-1; 0.71 fold with Peptide-13; 2.01 fold in the series with Peptide-2; 0.24 fold with Peptide-3; 0.72 fold with Peptide-4; 0.2 fold with Peptide-5. In addition, the kapp ratio vs G399V/G714K (B1) with Peptide-6a was 0.3 fold; in the series with Peptide-6b, 0.24 fold; with Peptide-7, 0.59 fold; with Peptide-8, 0.43 fold.
